Legend:
[1] = tested on: GTM-3 transformed human TM cells; assay: TGF-β2-mediated fibronectin and PAI-1 in human TM cell culture supernatants, ELISA (FIG. 3); assay type: cell-based; details: human TM cell cultures, 24 h
Procedure: (§1) Generation and characterization of the GTM-3 transformed cell line has been previously described (Pang et al., Curr Eye Res., 1994; Vol. 13:51-63). Briefly, maintenance growth medium consisted of Dulbecco's modified Eagle's medium with Glutamax I (Gibco/BRL, Grand Island, N.Y.) supplemented with 10% fetal bovine serum (Hyclone, Logan, Utah) and 50 μg/mL gentamicin (Gibco/BRL). For assay, cultures were trypsinized and seeded into 24-well plates (Corning Costar, Acton, Mass.) and allowed to grow until monolayers reached approximately 90% confluence. Culture medium was then replaced with 0.25 mL serum- and antibiotic-free medium containing the appropriate test compound(s). Cells were incubated 24 h, at 5% CO2 and 37° C. Aliquots of culture supernatants were then assayed for fibronectin and/or PAI-1 content by ELISA.

ALK5 = molecular target: T1, ALK5 (Homo sapiens, UniProt P36897); details: Brit J Pharmacol. 2005; 145:166-177; read-out: IC50, inhibition of phosphorylation of ALK5; cited from earlier work
T1 sequence (P36897 34-503): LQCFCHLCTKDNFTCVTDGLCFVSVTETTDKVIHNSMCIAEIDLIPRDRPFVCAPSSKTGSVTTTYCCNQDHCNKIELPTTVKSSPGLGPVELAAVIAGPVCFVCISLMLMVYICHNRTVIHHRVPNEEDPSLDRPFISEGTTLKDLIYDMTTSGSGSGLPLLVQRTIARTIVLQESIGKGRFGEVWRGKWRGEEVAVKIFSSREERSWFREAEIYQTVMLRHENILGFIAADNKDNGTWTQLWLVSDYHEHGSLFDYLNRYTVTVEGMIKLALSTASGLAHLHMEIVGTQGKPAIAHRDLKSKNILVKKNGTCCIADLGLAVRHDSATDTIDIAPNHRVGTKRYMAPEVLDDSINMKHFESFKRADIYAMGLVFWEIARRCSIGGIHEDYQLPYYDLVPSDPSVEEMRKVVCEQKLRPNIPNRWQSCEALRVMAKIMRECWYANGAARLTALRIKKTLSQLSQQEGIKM

TGF-β Type II receptors = TGF-β Type II receptors (Homo sapiens, UniProt P37173); details: Brit J Pharmacol. 2005; 145:166-177; read-out: IC50, phosphorylation of TGF-β Type II receptors; cited from earlier work
TGF-β Type II receptors, sequence (P37173 23-567): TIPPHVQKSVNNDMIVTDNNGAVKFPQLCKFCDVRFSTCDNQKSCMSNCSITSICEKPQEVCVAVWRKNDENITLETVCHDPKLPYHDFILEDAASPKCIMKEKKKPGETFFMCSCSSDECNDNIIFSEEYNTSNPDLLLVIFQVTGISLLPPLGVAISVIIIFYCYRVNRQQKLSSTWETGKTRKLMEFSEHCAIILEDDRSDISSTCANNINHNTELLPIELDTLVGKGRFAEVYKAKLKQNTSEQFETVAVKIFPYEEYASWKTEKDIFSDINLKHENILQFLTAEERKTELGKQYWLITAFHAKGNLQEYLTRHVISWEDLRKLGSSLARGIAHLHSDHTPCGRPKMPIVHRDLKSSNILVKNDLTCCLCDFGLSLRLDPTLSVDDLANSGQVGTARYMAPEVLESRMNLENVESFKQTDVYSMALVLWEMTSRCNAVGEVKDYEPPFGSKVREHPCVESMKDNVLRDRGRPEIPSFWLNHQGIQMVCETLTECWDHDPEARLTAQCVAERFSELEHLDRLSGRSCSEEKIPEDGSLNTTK

p38 MAPK = p38 MAPK (Homo sapiens, UniProt Q16539); details: Brit J Pharmacol. 2005; 145:166-177; read-out: IC50, phosphorylation of p38 MAPK; cited from earlier work
p38 MAPK, sequence (Q16539 whole entry, the tested form may be a part): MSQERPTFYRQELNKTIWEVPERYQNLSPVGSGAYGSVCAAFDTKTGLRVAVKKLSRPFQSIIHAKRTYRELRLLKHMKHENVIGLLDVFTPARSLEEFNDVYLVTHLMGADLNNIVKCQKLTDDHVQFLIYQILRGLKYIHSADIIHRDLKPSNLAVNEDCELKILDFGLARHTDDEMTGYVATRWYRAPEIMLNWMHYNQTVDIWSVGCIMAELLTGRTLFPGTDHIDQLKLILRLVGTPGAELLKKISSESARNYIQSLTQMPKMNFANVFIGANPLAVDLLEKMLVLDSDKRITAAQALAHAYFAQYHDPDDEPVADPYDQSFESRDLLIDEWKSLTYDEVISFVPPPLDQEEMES

[2] = tested on: TGF-β2-treated perfused human anterior segment model; assay: Perfusate fibronectin in TGF-β2-treated perfused human anterior segment model (FIG. 2); details: human anterior segments treated with TGF-β2 and compound vs TGF-β2 only
Procedure: Human ocular perfusion organ culture was performed as described in available literature. [Tschumper et al., Curr Eye Res., 1990; Vol. 9:363-369; Clark et al., Invest Ophthalmol Vis Sci., 1995; Vol. 36:478-489; Pang et al., J Glaucoma, 2000; Vol. 9:468-479; Pang et al., Invest Ophthalmol Vis Sci., 2003; Vol. 44:3502-3510]. Briefly, anterior segments were dissected and mounted into custom Plexiglas culture chambers, then perfused with serum-free Dulbecco's modified Eagle's medium. IOP was monitored every 5 seconds and averaged each hour. Perfused tissue was allowed to equilibrate at 37° C. and 5% CO2 until a stable baseline IOP was achieved, typically 2-4 days; tissues with unstable IOP were discarded. Stable tissues were then further perfused with media containing the test compound(s) as indicated and changes in IOP were recorded. Eluate samples were collected daily for ELISA analysis of fibronectin and PAI-1 content. Tissues were fixed and evaluated for viability/morphology by light and electron microscopy at termination of each study. Data from unacceptable tissues were excluded from results. Criteria for “unacceptable” tissues included findings such as excess debris in the TM region, denudation of TM beams, loss of TM and/or Schlemm's canal cells, and breaks or collapse of Schlemm's canal. […]

[3] = tested on: GTM-3 transformed human TM cells; assay: Pro-collagen type I C-peptide (PIP) in human TM cell cultures, ELISA (FIG. 4); assay type: cell-based; details: 24 h
Procedure: For this experiment, cultured transformed GTM-3 cells (Pang et al., Curr Eye Res., 1994; Vol. 13:51-63) were grown in a growth medium consisting of Dulbecco's modified Eagle's medium with Glutamax I (Gibco/Invitrogen, Grand Island, N.Y.) supplemented with 10% fetal bovine serum (Hyclone, Logan, Utah) and 50 μg/mL gentamicin (Gibco/Invitrogen). For assay, cultures were enzymatically-dissociated (TrypLE Express; Gibco/Invitrogen) then seeded into 24-well plates (Corning Costar, Acton, Mass.) and allowed to grow until monolayers reached approximately 90-95% confluence. Culture medium was then replaced with 0.25 mL serum- and antibiotic-free medium containing the appropriate test compound(s). Cells were incubated 24 h, at 5% CO2 and 37° C. Aliquots of culture supernatants were then assayed using an ELISA kit for procollagen Type I C-peptide (TaKaRa Bio, Shiga, Japan).
Collagens are synthesized as pro-collagens, most of which contain additional peptide sequences called “propeptides”. Propeptides are located at both the N- and C-terminal ends of the molecules. These propeptides serve to facilitate formation of the mature collagen's triple helical structure from pro-collagens within the endoplasmic reticulum. […]

[4] = tested on: perfused human anterior segment model; assay: Perfused human anterior segment model, IOP (FIG. 1); details: TGF-β2 infused at 5 ng/mL
Procedure: FIG. 1 is a graph showing the effect of infused TGF-β2 on a perfused human anterior segment model. All donor eyes used in this model were used according to the provisions of the Declaration of Helsinki for research involving human tissue, and were used within 24 hours post-mortem. No donors were known to have a history of glaucoma or other ocular disorder.
Human ocular perfusion organ culture was performed as described in available literature. [Tschumper et al., Curr Eye Res., 1990; Vol. 9:363-369; Clark et al., Invest Ophthalmol Vis Sci., 1995; Vol. 36:478-489; Pang et al., J Glaucoma, 2000; Vol. 9:468-479; Pang et al., Invest Ophthalmol Vis Sci., 2003; Vol. 44:3502-3510]. Briefly, anterior segments were dissected and mounted into custom Plexiglas culture chambers, then perfused with serum-free Dulbecco's modified Eagle's medium. IOP was monitored every 5 seconds and averaged each hour. Perfused tissue was allowed to equilibrate at 37° C. and 5% CO2 until a stable baseline IOP was achieved, typically 2-4 days; tissues with unstable IOP were discarded. Stable tissues were then further perfused with media containing the test compound(s) as indicated and changes in IOP were recorded. Eluate samples were collected daily for ELISA analysis of fibronectin and PAI-1 content. Tissues were fixed and evaluated for viability/morphology by light and electron microscopy at termination of each study. […]

GTM-3 = assay: Effect of TGF-β2 on HTM cell secretion of fibronectin and PAI-1; assay type: cell-based, human; details: 24 hours
Procedure: as §1
(§2) TABLE 1, shown below, summarizes the results of a study measuring the effect of TGF-β2 on ECM-related protein levels (fibronectin, PAI-1) in cultured TM cells of various strains. TGF-β2 was present in the cultures at a concentration of 5 ng/mL, and protein levels (mean±s.e.m.) were measured after 24 hours.

GTM29-01 = assay: as above; assay type: cell-based, human; details: 24 hours
Procedure: as §1, §2

GTM686-03 = assay: as above; assay type: cell-based, human; details: 24 hours
Procedure: as §1, §2

GTM730-03 = assay: as above; assay type: cell-based, human; details: 24 hours
Procedure: as §1, §2

NTM25-91 = assay: as above; assay type: cell-based, human; details: 24 hours
Procedure: as §1, §2

NTM35 = assay: as above; assay type: cell-based, human; details: 24 hours
Procedure: as §1, §2

NTM553-02 = assay: as above; assay type: cell-based, human; details: 24 hours
Procedure: as §1, §2

NTM875-03 = assay: as above; assay type: cell-based, human; details: 24 hours
Procedure: as §1, §2

NTM974-03 = assay: as above; assay type: cell-based, human; details: 24 hours
Procedure: as §1, §2

SGTM1233-99 = assay: as above; assay type: cell-based, human; details: 24 hours
Procedure: as §1, §2

SGTM2697 = assay: as above; assay type: cell-based, human; details: 24 hours
Procedure: as §1, §2

For c1ccc(-c2n[nH]cc2-c2ccnc3ccccc23)nc1 [Compound 2], the “Inhibition of TGF-β2-mediated increase in PAI-1 content in supernatants” value [1] was “dose-dependent inhibition” and the “Inhibition of TGF-β2-mediated increase in fibronectin content in supernatants” value [1] was “dose-dependent inhibition”.

In the case of c1ccc(-c2cc(-c3cn[nH]c3-c3ccccn3)ccn2)cc1 [GW-6604], the IC50 (ALK5) is listed as about 0.14 µM, the IC50 (TGF-β Type II receptors) is listed as 10 µM and the IC50 (p38 MAPK) is listed as 9.5 µM.

In the case of NC(=O)c1ccc(-c2nc(-c3ccc4c(c3)OCO4)c(-c3ccccn3)[nH]2)cc1 [Compound 1], the “TGF-β2-mediated increase in perfusate fibronectin content” value [2] is reported as “completely antagonized”, the “Inhibition of TGF-β2-mediated increase in PAI-1 content in supernatants” value [1] is reported as “dose-dependent inhibition” and the “Inhibition of TGF-β2-mediated increase in fibronectin content in supernatants” value [1] is reported as “dose-dependent inhibition”. The “TGF-β2-dependent PIP elevation” value ([3]; cultures treated with both TGF-β2 and compound) was “eliminated”.

B1: TGF-β2: transforming growth factor-beta isoform 2, a cytokine acting on ALK5 (Type 1 TGF-β receptor) (protein, UniProt P61812 303-414, looked up)
Transforming growth factor …: ALDAAYCFRNVQDNCCLRPLYIDFKRDLGWKWIHEPKGYNANFCAGACPYLWSSDTQHSRVLSLYNTINPEASASPCCVSQDLEPLTILYYIGKTPKIEQLSNMIVKSCKCS
With B1 the “IOP relative to control” value ([4]; after 72 hours) was “almost double”, the “IOP compared to control” value ([4]; within 24 hours) was “elevated IOP” and the “PIP levels compared to vehicle” value ([3]; TGF-β2-treated cultures, both study replicates) was “greatly elevated”. For the same molecule, the “Fibronectin Fold Increase” value (GTM-3; TGF-β2 5 ng/mL vs control) was 5.4, the “PAI-1 Fold Increase” value (GTM-3; TGF-β2 5 ng/mL vs control) was 19.4 and the Fibronectin (GTM-3; TGF-β2 5 ng/mL, mean±s.e.m.) was 16.7 ± 1^ μg/well. The PAI-1 (GTM-3; TGF-β2 5 ng/mL, mean±s.e.m.) was 266 ± 8 ng/well, the “Fibronectin Fold Increase” value (GTM29-01; TGF-β2 5 ng/mL vs control) was 9.4 and the “PAI-1 Fold Increase” value (GTM29-01; TGF-β2 5 ng/mL vs control) was 3.9. The Fibronectin (GTM29-01; TGF-β2 5 ng/mL, mean±s.e.m.) was 9.4 ± 2.6 μg/well, the PAI-1 (GTM29-01; TGF-β2 5 ng/mL, mean±s.e.m.) was 260.5 ± 13.6 ng/well and the “Fibronectin Fold Increase” value (GTM686-03; TGF-β2 5 ng/mL vs control) was 126. The “PAI-1 Fold Increase” value (GTM686-03; TGF-β2 5 ng/mL vs control) was 2.5, the Fibronectin (GTM686-03; TGF-β2 5 ng/mL, mean±s.e.m.) was 25.2 ± 9.6 μg/well and the PAI-1 (GTM686-03; TGF-β2 5 ng/mL, mean±s.e.m.) was 258.3 ± 28.1 ng/well. The “Fibronectin Fold Increase” value (GTM730-03; TGF-β2 5 ng/mL vs control) was 32.8, the “PAI-1 Fold Increase” value (GTM730-03; TGF-β2 5 ng/mL vs control) was 2.2 and the Fibronectin (GTM730-03; TGF-β2 5 ng/mL, mean±s.e.m.) was 26.2 ± 1.6 μg/well. The PAI-1 (GTM730-03; TGF-β2 5 ng/mL, mean±s.e.m.) was 268.8 ± 3.9 ng/well, the “Fibronectin Fold Increase” value (NTM25-91; TGF-β2 5 ng/mL vs control) was 6.2 and the Fibronectin (NTM25-91; TGF-β2 5 ng/mL, mean±s.e.m.) was 19.3 ± 1.5 μg/well. For the same molecule, the “Fibronectin Fold Increase” value (NTM35; TGF-β2 5 ng/mL vs control) was 4.1, the Fibronectin (NTM35; TGF-β2 5 ng/mL, mean±s.e.m.) was 13 ± 2.7 μg/well and the “Fibronectin Fold Increase” value (NTM553-02; TGF-β2 5 ng/mL vs control) was 6.7. For the same molecule, the “PAI-1 Fold Increase” value (NTM553-02; TGF-β2 5 ng/mL vs control) was 2.5, the Fibronectin (NTM553-02; TGF-β2 5 ng/mL, mean±s.e.m.) was 10.1 ± 1.1 μg/well and the PAI-1 (NTM553-02; TGF-β2 5 ng/mL, mean±s.e.m.) was 315.9 ± 9.5 ng/well. For the same molecule, the “Fibronectin Fold Increase” value (NTM875-03; TGF-β2 5 ng/mL vs control) was 19.2, the “PAI-1 Fold Increase” value (NTM875-03; TGF-β2 5 ng/mL vs control) was 2.6 and the Fibronectin (NTM875-03; TGF-β2 5 ng/mL, mean±s.e.m.) was 9.6 ± 3.8 μg/well. For the same molecule, the PAI-1 (NTM875-03; TGF-β2 5 ng/mL, mean±s.e.m.) was 282.6 ± 11.6 ng/well, the “Fibronectin Fold Increase” value (NTM974-03; TGF-β2 5 ng/mL vs control) was 2.3 and the “PAI-1 Fold Increase” value (NTM974-03; TGF-β2 5 ng/mL vs control) was 2.8. For the same molecule, the Fibronectin (NTM974-03; TGF-β2 5 ng/mL, mean±s.e.m.) was 8.9 ± 1.5 μg/well, the PAI-1 (NTM974-03; TGF-β2 5 ng/mL, mean±s.e.m.) was 297.7 ± 23.1 ng/well and the “Fibronectin Fold Increase” value (SGTM1233-99; TGF-β2 5 ng/mL vs control) was 3.1. For the same molecule, the “PAI-1 Fold Increase” value (SGTM1233-99; TGF-β2 5 ng/mL vs control) was 2.9, the Fibronectin (SGTM1233-99; TGF-β2 5 ng/mL, mean±s.e.m.) was 12.2 ± 2.1 μg/well and the PAI-1 (SGTM1233-99; TGF-β2 5 ng/mL, mean±s.e.m.) was 256.5 ± 35.4 ng/well. For the same molecule, the “Fibronectin Fold Increase” value (SGTM2697; TGF-β2 5 ng/mL vs control) was 2.4 and the Fibronectin (SGTM2697; TGF-β2 5 ng/mL, mean±s.e.m.) was 19.5 ± 2^ μg/well.
